According to patent US20220002701A1:

What was measured:
[1] = target: SARS-CoV-2 S protein containing D614 with the C-terminal 19 residues of the cytoplasmic tail deleted, on MLV pseudovirus (SARS-CoV-2) (UniProt P0DTC2); experiment: cell-based or functional assay
[2] = target: stabilized soluble SARS-CoV-2 S ectodomain trimer in the pre-fusion conformation (SARS-CoV-2; bacteriophage T4) (UniProt P0DTC2)

Chain of ACE2615-LL-foldon (Q9BYF1 18-615, tags left off, one chain of several): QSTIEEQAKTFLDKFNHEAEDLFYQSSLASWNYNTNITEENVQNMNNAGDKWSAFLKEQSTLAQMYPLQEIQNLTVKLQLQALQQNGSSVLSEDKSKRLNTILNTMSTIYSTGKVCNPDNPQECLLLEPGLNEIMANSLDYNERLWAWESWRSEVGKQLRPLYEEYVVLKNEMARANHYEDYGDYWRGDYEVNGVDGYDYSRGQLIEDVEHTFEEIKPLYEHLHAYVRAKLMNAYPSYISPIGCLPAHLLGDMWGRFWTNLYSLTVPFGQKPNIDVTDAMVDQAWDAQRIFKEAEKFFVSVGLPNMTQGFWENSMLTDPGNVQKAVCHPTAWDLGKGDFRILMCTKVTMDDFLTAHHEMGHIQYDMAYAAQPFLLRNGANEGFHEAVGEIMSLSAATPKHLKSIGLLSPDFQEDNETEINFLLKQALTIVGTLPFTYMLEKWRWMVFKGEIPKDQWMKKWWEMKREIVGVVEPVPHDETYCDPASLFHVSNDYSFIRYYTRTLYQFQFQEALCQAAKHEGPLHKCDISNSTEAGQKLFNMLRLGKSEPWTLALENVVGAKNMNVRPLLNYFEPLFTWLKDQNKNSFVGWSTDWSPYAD

For “ACE2615-LL-foldon (from UniProt Q9BYF1 18-615; P10104 458-484) (receptor)”, the IC50, inhibition of MLV-based pseudovirus infection of ACE2-expressing cells [1] was 0.6 µg/mL, the Kd [2] was 624 pM and the ka2 [2] was 3.3. The kdis2 [2] was 0.365, the koff [2] was 8.26e-05 s⁻¹ and the kon [2] was 133000 M⁻¹ s⁻¹.
